In article PMC6792017 (The EMBO Journal, 2019):

Biological target: T1, HA-tagged caspase-1 p10 plus p20 C285S active-site mutant (human, UniProt P29466 120-297; P29466 317-404, C285S)
T1 sequence (looked up) 1: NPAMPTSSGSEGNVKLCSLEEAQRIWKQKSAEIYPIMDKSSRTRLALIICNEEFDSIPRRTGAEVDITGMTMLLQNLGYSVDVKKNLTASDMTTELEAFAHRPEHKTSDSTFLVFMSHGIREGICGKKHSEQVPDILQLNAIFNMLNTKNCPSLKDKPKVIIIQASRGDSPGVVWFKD
T1 sequence (looked up) 2: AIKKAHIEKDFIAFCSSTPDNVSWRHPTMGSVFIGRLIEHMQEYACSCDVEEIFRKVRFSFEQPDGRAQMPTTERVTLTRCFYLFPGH
Experiment: non-reducing SDS-PAGE with Western blot

binding result: binds
B1: active recombinant human PRDX4 (non-reduced) (enzyme, UniProt Q13162 38-271, looked up)
chain: WETEERPRTREEECHFYAGGQVYPGEASRVSVADHSLHLSKAKISKPAPYWEGTAVIDGEFKELKLTDYRGKYLVFFFYPLDFTFVCPTEIIAFGDRLEEFRSINTEVVACSVDSQFTHLAWINTPRRQGGLGPIRIPLLSDLTHQISKDYGVYLEDSGHTLRGLFIIDDKGILRQITLNDLPVGRSVDETLRLVQAFQYTDKHGEVCPAGWKPGSETIIPDPAGKLKYFDKLN
